Laboratory results: patent publication US20110130457A1, “Wax-Based Emulsion for the Treatment of Dry Eye Conditions” (UNIVERSITY OF LOUISVILLE RESEARCH FOUNDATION, INC., priority 2008, published 2011)

Key:
β-lactoglobulin = target: T1, β-lactoglobulin (Bos taurus, UniProt P02754); assay: Wax-lactoglobulin binding by intrinsic tryptophan fluorescence intensity and anisotropy
T1 sequence (P02754 17-178): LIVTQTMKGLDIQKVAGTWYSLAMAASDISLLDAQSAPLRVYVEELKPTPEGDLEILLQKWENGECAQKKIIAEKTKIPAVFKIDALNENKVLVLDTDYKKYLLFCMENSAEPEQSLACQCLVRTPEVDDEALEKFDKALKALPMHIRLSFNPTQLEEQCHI
Text: Changes in protein concentration alone are unlikely to affect the rate of evaporation of tears. […] (See Pandit J. C., Nagyova B., Bron A. J., et al, Physical properties of stimulated and unstimulated tears. Exp Eye Res. 1999; 68:247-253.) In this embodiment of the present invention, wax interacted with lactoglobulin. Wax-lactoglobulin binding was quantified by measuring changes in the intrinsic fluorescence intensity of tryptophan. Tryptophan fluorescence is sensitive to local changes in electrostatic fields. Therefore, variations in the local environment/polarity of tryptophan leads to changes in its fluorescence properties as described by Vivian and Callis. Vivian J. T., Callis P. R., Mechanisms of tryptophan fluorescence shifts in proteins, Biophys. J. 2001; 80:2093-2109.) Substrate binding and protein structural changes are commonly measured by observing changes in tryptophan fluorescence intensity, wavelength maximum, band shape, anisotropy, fluorescence lifetimes, and energy transfer.
A wax emulsion that is stable for at least 4 weeks was prepared as described previously by the inventors. […] A quantified amount of wax (0.156 to 1.25 μL/mL) was mixed with 1 mg/mL lactoglobulin in phosphate buffered saline and equilibrated for 12 hours at 34° C. under an atmosphere of argon. […] Emission spectra were measured from 300 to 400 nm with an excitation wavelength of 270 nm. […]

[1] = Evaporation rates measured in vitro (gravimetric); type: physicochemical; settings: for Influence on the rate of evaporation: concentrations of 50 to 100 mg/mL, at 25 or 34° C.
Description: Samples (0.750 mL) for evaporation rate measurements were placed into a plastic container 0.8 cm deep and 1.500 cm inside diameter. Temperature and relative humidity were recorded at the start and end of each experiment. Samples were weighed every minute for 10 minutes using a Mettler-Toledo AT261 analytical balance (Columbus, Ohio). The balance was calibrated and certified by a Mettler technician prior to use. The weights of as many as 7 samples were measured sequentially, i.e., after measuring the weights of sample 1 for ten minutes, the weights of sample 2 were measured for ten minutes, followed by the next sample. The weights of four 10 minute weighing sequences were plotted versus time and the rate of evaporation was calculated from the slope of the data in the plots that were fitted using least squares linear regression analysis. The rate of evaporation at 34° C. was measured using four, 3-minute weighing sequences instead of ten.
The rate of evaporation with 20 standard cubic feet per minute (SCFM) of dry air flowing over the sample at 24° C. was measured. Air was completely dried using a Keaser desiccant dry, model KLDW-10S (Columbus, Ohio) attached to a Purimetrics Compressor, model 750-2 (Edina, Minn.) and a 80 gallon air receiver tank. Complete removal of water vapor from the air was confirmed using an infrared spectrometer. The sample was placed under a flow of dry air for 1 minute and removed from the dry air for two minutes and weighed in a Mettler-Toledo analytical balance. This cycle was repeated ten times. The rate of evaporation in dry air was calculated from the total rate of evaporation minus the contribution of the evaporation in the room air. Evaporation rate was expressed as μm/min, the rate of thickness lost at the surface per minute. Changes in the thickness of the tear film (˜5 μm) due to evaporation can be estimated readily by expressing the evaporation rate in μm/min.

[2] = 50 mg/mL, 24.8° C., relative humidity 40.6%
[3] = 100 mg/mL, 24.8° C., relative humidity 40.6%

Molecule | Fluorescence intensity of the tryptophan residues in lactoglobulin (β-lactoglobulin; as little as 20 nmoles (~0.1 μg) wax added to 1 mg β-lactoglobulin in 1 ml phosphate buffered saline) | Tryptophan anisotropy of lactoglobulin (β-lactoglobulin; with the addition of wax, n=6, 0.138±0.009 with no wax, p=0.04, SEM) | Rate of Evaporation [1, 2] | Rate of Evaporation [1, 3] | Influence on the rate of evaporation [1] | Rate of Evaporation ([1]; 100 mg/mL, 34° C.)
CCCCCCCC/C=C\CCCCCCCC(=O)OCCCCCCCCCCCCCCCC [palmityloleate wax, palmityloleate] | caused a decrease in the fluorescence intensity | 0.115±0.004 |  |  |  | 
Lysozyme |  |  | 3.0 μm/min | 3.0 μm/min | did not significantly influence the rate of evaporation | 
Mucin |  |  | 2.9 μm/min | 3.0 μm/min | did not significantly influence the rate of evaporation | 
β-Lactoglobulin: model tear protein, used as a model for lipocalin |  |  | 3.08 μm/min | 3.12 μm/min | did not significantly influence the rate of evaporation | 9.1 μm/min
